In PMC12408800:

Target: KhpB from Thermus thermophilus (Thermus thermophilus HB8)
Experiment: SEC

KhpB from Thermus thermophilus (natural protein)
stoichiometry N: 2
